Source: patent publication EP3470429A1 (Numab Innovation AG, dated 2019)
Residue numbers refer to the chain shown, from its start.

Assays:
[1] = biological target: T1, human PD-L1-Fc chimeric protein (human, UniProt Q9NZQ7 19-238); assay: SPR Biacore T200, PD-L1-Fc captured by anti-human Fc
T1 construct: not shown: Fc part, captured by an anti-human IgG Fc antibody

human serum albumin = biological target: T2, human serum albumin (human, UniProt P02768 25-609); assay: SPR Biacore T200, SA amine-coupled to CM5 chip, pH 5.5
T2 construct: also called HSA; human SA

[2] = biological target: T3, human PD-L1 expressed on cells (human, UniProt Q9NZQ7 19-290); assay: cell-based or functional assay
[3] = biological target: T3, human PD-L1 expressed on cells; assay: cell-based or functional assay; remark: listed apart in the source
mouse serum albumin = biological target: T4, mouse serum albumin (mouse, UniProt P07724 25-608); assay: assay not given
T4 construct: also called MSA
T4 sequence (P07724 25-608 limits assumed): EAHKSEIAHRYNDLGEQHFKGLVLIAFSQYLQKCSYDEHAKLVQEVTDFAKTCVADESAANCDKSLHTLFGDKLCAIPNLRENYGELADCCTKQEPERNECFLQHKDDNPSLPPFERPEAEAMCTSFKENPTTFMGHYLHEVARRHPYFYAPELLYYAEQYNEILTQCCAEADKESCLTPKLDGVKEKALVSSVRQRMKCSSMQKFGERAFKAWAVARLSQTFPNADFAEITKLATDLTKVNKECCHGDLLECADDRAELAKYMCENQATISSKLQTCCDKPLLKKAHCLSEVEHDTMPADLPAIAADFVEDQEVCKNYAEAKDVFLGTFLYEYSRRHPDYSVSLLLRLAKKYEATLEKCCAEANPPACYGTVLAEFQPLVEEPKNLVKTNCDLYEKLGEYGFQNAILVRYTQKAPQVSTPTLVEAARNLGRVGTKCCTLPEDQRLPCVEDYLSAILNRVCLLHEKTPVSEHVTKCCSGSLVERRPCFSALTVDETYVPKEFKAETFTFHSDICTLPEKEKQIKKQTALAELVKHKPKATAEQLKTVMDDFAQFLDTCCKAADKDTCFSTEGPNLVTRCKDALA

[4] = biological target: T5, recombinant human PDL1 extracellular domain (human, UniProt Q9NZQ7 19-238); assay: competition ELISA, PD-1 coated, biotinylated PD-L1 in solution, with HSA
T5 construct: also called hPDL1; hPDL1 ECD

[5] = biological target: T3, human PD-L1 expressed on cells; assay: cell-based or functional assay; remark: listed apart in the source
[6] = biological target: human CD137-Fc chimeric protein (human) (UniProt Q07011); assay: SPR Biacore T200, CD137-Fc captured by anti-human Fc
human CD137-Fc chimeric protein (human), sequence (Q07011 24-186 limits assumed, change not shown): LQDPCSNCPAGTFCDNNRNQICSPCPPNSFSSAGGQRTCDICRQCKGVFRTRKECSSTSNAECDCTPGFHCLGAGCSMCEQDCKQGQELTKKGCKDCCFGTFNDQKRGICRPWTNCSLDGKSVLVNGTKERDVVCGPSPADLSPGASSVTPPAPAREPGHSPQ

[7] = biological target: T3, human PD-L1 expressed on cells; assay: cell-based or functional assay; remark: listed apart in the source

B1: PRO966 (other)
chain: DIQMTQSPSSLSASVGDRVTITCQASQSINDYLAWYQQKPGKAPKLLIYKASTLASGVPSRFSGSGSGTDFTLTISSLQPEDFATYYCQQGYIITDIDNVFGTGTKVTVLGGGGGSQVQLQESGPGLVKPSETLSLTCKVSGFSFNNDYDMCWIRQPPGKGLEWIGCIDTGDGSTYYASWAKGRVTISVDSSKNQFSLKLSSVTAADTAVYYCAREAASSSGYGMGYFDLWGQGTLVTVSSGGGGSGGGGSGGGGSGGGGSIQMTQSPSSLSASVGDRVTITCQSSQSVYDNNWLAWYQQKPGKAPKLLIYRASNLASGVPSRFSGSGSGTDFTLTISSLQPEDFATYYCQGTYLSSNWYWAFGTGTKVTVLGGGGGSQVQLQESGPGLVKPSETLSLTCKVSGFSFSSGYDMCWIRQPPGKGLEWIGCVVAGSVDITYYASWAKGRVTISVDSSKNQFSLKLSSVTAADTAVYYCARKDAYSDAFNLWGQGTLVTVSSGGGGSGGGGSIQMTQSPSSLSASVGDRVTITCQSSESVYSNNQLSWYQQKPGQPPKLLIYDASDLASGVPSRFSGSGSGTDFTLTISSLQPEDFATYYCAGGFSSSSDTAFGGGTKLTVLGGGGGSGGGGSGGGGSGGGGSEVQLVESGGGLVQPGGSLRLSCAASGFSLSSNAMGWVRQAPGKGLEYIGIISVGGFTYYASWAKGRFTISRDNSKNTVYLQMNSLRAEDTATYFCARDRHGGDSSGAFYLWGQGTLVTVSS
notes: also called PRO1052; 38_27_C05 sc01 scDb-i/33-03-G02 sc01 scDb-o/19-01-H04-sc03 scFv
binding result [1]: binds
binding result (human serum albumin): binds

B2: PRO997 (scFv)
scFv: DIQMTQSPSSLSASVGDRVTITCQASQSIGTYLAWYQQKPGKAPKLLIYRAFILASGVPSRFSGSGSGTDFTLTISSLQPEDFATYYCQSNFYSDSTTIGPNAFGTGTKVTVLGGGGGSGGGGSGGGGSGGGGSQVQLQESGPGLVKPSETLSLTCKVSGFSFNSDYWIYWIRQPPGKGLEWIGSIYGGSSGNTQYASWAQGRVTISVDSSKNQFSLKLSSVTAADTAVYYCARGYVDYGGATDLWGQGTLVTVSS
IC50 (ng/ml), NF-AT Potency assay [2]: 11.1 ng/mL
EC50 in ng/ml of IL-2 secretion, PBMC assay using SEA stimulation [3]: 40.9 ng/mL

B3: PRO1057 (other)
chain: DIQMTQSPSSLSASVGDRVTITCQASQSINDYLAWYQQKPGKAPKLLIYKASTLASGVPSRFSGSGSGTDFTLTISSLQPEDFATYYCQQGYIITDIDNVFGTGTKVTVLGGGGGSQVQLQESGPGLVKPSETLSLTCKVSGFSFSNSYWICWIRQPPGKGLEWIGCTFVGSSDSTYYANWAKGRVTISVDSSKNQFSLKLSSVTAADTAVYYCARHPSDAVYGYANNLWGQGTLVTVSSGGGGSGGGGSGGGGSGGGGSIQMTQSPSSLSASVGDRVTITCQASQSINNVLAWYQQKPGKAPKLLIYRASTLASGVPSRFSGSGSGTDFTLTISSLQPEDFATYYCQSSYGNYGDFGTGTKVTVLGGGGGSQVQLQESGPGLVKPSETLSLTCKVSGFSFSSGYDMCWIRQPPGKGLEWIGCVVAGSVDITYYASWAKGRVTISVDSSKNQFSLKLSSVTAADTAVYYCARKDAYSDAFNLWGQGTLVTVSSGGGGSGGGGSVVMTQSPSSLSASVGDRVTITCQASQIISSRSAWYQQKPGQPPKLLIYQASKLASGVPSRFSGSGSGTDFTLTISSLQPEDFATYYCQCTYIDSNFGAFGGGTKLTVLGGGGGSGGGGSGGGGSGGGGSEVQLVESGGGLVQPGGSLRLSCAASGFSFSSSYWICWVRQAPGKGLEWVGCVFTGDGTTYYASWAKGRFTISRDNSKNTVYLQMNSLRAEDTATYFCARPVSVYYYGMDLWGQGTLVTVSS
notes: also called 38_02_A04 sc01 scDb-i/33-03-G02 sc01 scDb-o/mxr HSA (23-13-A01-sc03, sk17sh4)
IC50 (ng/ml), NF-AT Potency assay, with HSA [2]: 665 ng/mL
binding result (mouse serum albumin): binds
binding result (human serum albumin): binds
fold higher IC50 in presence of human serum albumin [4]: ~2 fold

B4: PRO1058 (other)
chain: DIQMTQSPSSLSASVGDRVTITCQASQSINDYLAWYQQKPGKAPKLLIYKASTLASGVPSRFSGSGSGTDFTLTISSLQPEDFATYYCQQGYIITDIDNVFGTGTKVTVLGGGGGSQVQLQESGPGLVKPSETLSLTCKVSGFSFNNDYDMCWIRQPPGKGLEWIGCIDTGDGSTYYASWAKGRVTISVDSSKNQFSLKLSSVTAADTAVYYCAREAASSSGYGMGYFDLWGQGTLVTVSSGGGGSGGGGSGGGGSGGGGSIQMTQSPSSLSASVGDRVTITCQSSQSVYDNNWLAWYQQKPGKAPKLLIYRASNLASGVPSRFSGSGSGTDFTLTISSLQPEDFATYYCQGTYLSSNWYWAFGTGTKVTVLGGGGGSQVQLQESGPGLVKPSETLSLTCKVSGFSFSSGYDMCWIRQPPGKGLEWIGCVVAGSVDITYYASWAKGRVTISVDSSKNQFSLKLSSVTAADTAVYYCARKDAYSDAFNLWGQGTLVTVSSGGGGSGGGGSVVMTQSPSSLSASVGDRVTITCQASQIISSRSAWYQQKPGQPPKLLIYQASKLASGVPSRFSGSGSGTDFTLTISSLQPEDFATYYCQCTYIDSNFGAFGGGTKLTVLGGGGGSGGGGSGGGGSGGGGSEVQLVESGGGLVQPGGSLRLSCAASGFSFSSSYWICWVRQAPGKGLEWVGCVFTGDGTTYYASWAKGRFTISRDNSKNTVYLQMNSLRAEDTATYFCARPVSVYYYGMDLWGQGTLVTVSS
notes: also called 38_27_C05 sc01 scDb-i/33-03-G02 sc01 scDb-o/mxr HSA (23-13-A01-sc03,sk17sh4)
binding result [1]: binds
binding result (human serum albumin): binds

B5: PRO885 (bispecific antibody)
chain: DIQMTQSPSSLSASVGDRVTITCQASQSINDYLAWYQQKPGKAPKLLIYKASTLASGVPSRFSGSGSGTDFTLTISSLQPEDFATYYCQQGYIITDIDNVFGTGTKVTVLGGGGGSQVQLQESGPGLVKPSETLSLTCKVSGFSFSNSYWICWIRQPPGKGLEWIGCTFVGSSDSTYYANWAKGRVTISVDSSKNQFSLKLSSVTAADTAVYYCARHPSDAVYGYANNLWGQGTLVTVSSGGGGSGGGGSGGGGSGGGGSIQMTQSPSSLSASVGDRVTITCQASQSINNVLAWYQQKPGKAPKLLIYRASTLASGVPSRFSGSGSGTDFTLTISSLQPEDFATYYCQSSYGNYGDFGTGTKVTVLGGGGGSQVQLQESGPGLVKPSETLSLTCKVSGFSFSSGYDMCWIRQPPGKGLEWIGCVVAGSVDITYYASWAKGRVTISVDSSKNQFSLKLSSVTAADTAVYYCARKDAYSDAFNLWGQGTLVTVSS
IC50 (ng/ml), NF-AT Potency assay [2]: 137 ng/mL
EC50 (ng/ml) of IL-2 secretion, PBMC with CHO cells expressing PD-L1; 1 ug/ml anti-CD3, 50000 CHO cells/well [5]: 12.8 ng/mL
EC50 (ng/ml) of IL-2 secretion, PBMC with CHO cells expressing PD-L1; 1 ug/ml anti-CD3, 100000 CHO cells/well [5]: 86.2 ng/mL
EC50 (ng/ml) of IL-2 secretion, PBMC with CHO cells expressing PD-L1; 1 ug/ml anti-CD3, 200000 CHO cells/well [5]: 80.6 ng/mL
EC50 (ng/ml) of IL-2 secretion, PBMC with CHO cells expressing PD-L1; 2 ug/ml anti-CD3, 50000 CHO cells/well [5]: 52 ng/mL
EC50 (ng/ml) of IL-2 secretion, PBMC with CHO cells expressing PD-L1; 2 ug/ml anti-CD3, 100000 CHO cells/well [5]: 41.9 ng/mL
EC50 (ng/ml) of IL-2 secretion, PBMC with CHO cells expressing PD-L1; 2 ug/ml anti-CD3, 200000 CHO cells/well [5]: 30.1 ng/mL
EC50 in ng/ml of IL-2 secretion, PBMC assay using SEA stimulation [3]: 39.9 ng/mL

B6: PRO1124 (bispecific antibody)
chain: B5 chain with V140A, I154V, V190K, F197V, Y213F, I261L, A302P
notes: also called 38-02-A04 sc06 Full scDb-i/33_03_G02 sc01 scDb-o
fold improvement of affinity compared to PRO885 [6]: > 200 fold
binding result [1]: binds

B7: PRO1126 (bispecific antibody)
chain: B5 chain with I2F, M4L, A43S, V374S, V396A, I410V, G422A, V446K, F453V, Y469F
IC50, NFAT reporter gene assay [7]: 48.1 ng/mL
fold improvement of neutralization potency against PRO885 [7]: 3 fold
fold improvement in affinity compared to the CDR graft (PRO885) [1]: 20 fold
